Earlier results as cited in patent publication US20040072753A1, “Peptides for use in the treatment of alzheimer's disease” (priority 2000, published 2004).

Target: Aβ (Homo sapiens, UniProt P05067)
Conditions: Milton, Biochem. J. 344: 293-296 (1999); read-out: binding KD for catalase

B1: catalase: antioxidant enzyme that binds Aβ (protein)
chain: ADSRDPASDQMQHWKEQRAAQKADVLTTGAGNPVGDKLNVITVGPRGPLLVQDVVFTDEMAHFDRERIPERVVHAKGAGAFGYFEVTHDITKYSKAKVFEHIGKKTPIAVRFSTVAGESGSADTVRDPRGFAVKFYTEDGNWDLVGNNTPIFFIRDPILFPSFIHSQKRNPQTHLKDPDMVWDFWSLRPESLHQVSFLFSDRGIPDGHRHMNGYGSHTFKLVNANGEAVYCKFHYKTDQGIKNLSVEDAARLSQEDPDYGIRDLFNAIATGKYPSWTFYIQVMTFNQAETFPFNPFDLTKVWPHKDYPLIPVGKLVLNRNPVNYFAEVEQIAFDPSNMPPGIEASPDKMLQGRLFAYPDTHRHRLGPNYLHIPVNCPYRARVANYQRDGPMCMQDNQGGAPNYYPNSFGAPEQQPSALEHSIQYSGEVRRFNTANDDNVTQVRAFYVNVLNEEQRKRLCENIAGHLKDAQIFIQKKAVKNFTEVHPDYGSHIQALLDKYNAEKPKNAIHTFVQSGSHLAAREKANL
Kd: 3.3 nM
